Target: T1, hCD20 on transfected Expi293 cells (human, UniProt P11836 1-297)
T1 construct: whole, on cells
T1 sequence (looked up): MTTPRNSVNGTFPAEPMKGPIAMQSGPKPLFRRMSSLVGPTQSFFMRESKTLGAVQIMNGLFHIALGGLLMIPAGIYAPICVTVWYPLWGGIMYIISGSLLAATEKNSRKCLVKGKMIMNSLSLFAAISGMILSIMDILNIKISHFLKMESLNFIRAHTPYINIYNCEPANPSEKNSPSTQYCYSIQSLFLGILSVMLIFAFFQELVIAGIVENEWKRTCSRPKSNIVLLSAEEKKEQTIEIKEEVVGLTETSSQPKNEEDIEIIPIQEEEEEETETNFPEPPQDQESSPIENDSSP
Assay: flow cytometry on Expi293 cells transfected with hCD20, anti-human Fc PE detection
Method: Expi293 cells transfected hCD20 were seeded in 96 U-bottom plate at 1×10e5 cells/well. The TASER antibody or human IgG1 isotype control were added at final concentration 1-10 μg/ml and incubated on ice or at 4° C. for 20-30 minutes. […] Stained cells were analyzed by flow cytometry and the binding ability were presented as PE positive population among total live cells.

B1: MX846 (bispecific antibody)
chain 1: not shown
chain 2: QAVVTQEPSLTVSPGGTVTLTCGSSTGAVTTSNYANWVQEKPGQAFRGLIGGTNKRAPGTPARFSGSLLGGKAALTLSGAQPEDEAEYYCALWYSNLWVFGGGTKLTVLGGSGGDIVMTQTPLSLPVTPGEPASISCRSSKSLLHSNGITYLYWYLQKPGQSPQLLIYQMSNLVSGVPDRFSGSGSGTDFTLKISRVEAEDVGVYYCAQNLELPYTFGGGTKVEIKGSGGSAGSGSGGGGSASGSGQVQLVQSGAEVKKPGSSVKVSCKASGYAFSYSWINWVRQAPGQGLEWMGRIFPGDGDTDYNGKFKGRVTITADKSTSTAYMELSSLRSEDTAVYYCARNVFDGYWLVYWGQGTLVTVSSGGSGGEVQLLESGGGLVQPGGSLRLSCAASGFTFSTYAMNWVRQAPGKGLEWVSRIRSKYNNYATYYADSVKGRFTISRDDSKNTLYLQMNSLRAEDTAVYYCVRHGNFGNSYVSWFAYWGQGTLVTVSSASGGSGDKTHTCPPCPAPEAAGGPSVFLFPPKPKDTLMISRTPEVTCVVVDVSHEDPEVKFNWYVDGVEVHNAKTKPREEQYNSTYRVVSVLTVLHQDWLNGKEYKCKVSNKALAAPIEKTISKAKGQPREPQVCTLPPSRDELTKNQVSLSCAVKGFYPSDIAVEWESNGQPENNYKTTPPVLDSDGSFFLVSKLTVDKSRWQQGNVFSCSVMHEALHNHYTQKSLSLSPG
- binding result: binds
